# Test results reported in US20260209301A1 (LIFEARC, published 2026).
# No end group written: not given here.
# T1: human GalR2 (human, UniProt O43603 1-387)
# T1 sequence (looked up): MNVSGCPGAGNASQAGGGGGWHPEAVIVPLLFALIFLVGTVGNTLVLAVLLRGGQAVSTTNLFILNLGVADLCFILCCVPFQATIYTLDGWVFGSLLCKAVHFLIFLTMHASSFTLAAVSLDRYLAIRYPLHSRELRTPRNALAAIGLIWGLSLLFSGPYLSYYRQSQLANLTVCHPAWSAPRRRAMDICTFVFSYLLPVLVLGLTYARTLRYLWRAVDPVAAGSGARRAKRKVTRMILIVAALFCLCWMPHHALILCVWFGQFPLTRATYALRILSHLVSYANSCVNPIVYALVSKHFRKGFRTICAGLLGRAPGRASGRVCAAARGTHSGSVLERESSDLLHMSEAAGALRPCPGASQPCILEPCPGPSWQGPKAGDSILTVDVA
# T2: human GalR1 (human, UniProt P47211 1-349)
# T2 sequence (looked up): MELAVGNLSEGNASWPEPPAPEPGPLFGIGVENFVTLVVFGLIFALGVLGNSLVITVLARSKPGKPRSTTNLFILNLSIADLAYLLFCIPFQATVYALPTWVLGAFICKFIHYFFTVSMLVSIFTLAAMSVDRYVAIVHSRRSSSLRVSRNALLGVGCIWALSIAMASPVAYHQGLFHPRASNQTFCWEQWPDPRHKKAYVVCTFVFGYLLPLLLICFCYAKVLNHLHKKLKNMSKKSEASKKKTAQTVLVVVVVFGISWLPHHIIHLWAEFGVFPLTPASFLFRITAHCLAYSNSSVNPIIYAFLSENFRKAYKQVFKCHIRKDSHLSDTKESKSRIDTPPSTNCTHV
# T3: rat GalR2 (Rattus rattus, UniProt O08726 1-372)
# T3 sequence (looked up): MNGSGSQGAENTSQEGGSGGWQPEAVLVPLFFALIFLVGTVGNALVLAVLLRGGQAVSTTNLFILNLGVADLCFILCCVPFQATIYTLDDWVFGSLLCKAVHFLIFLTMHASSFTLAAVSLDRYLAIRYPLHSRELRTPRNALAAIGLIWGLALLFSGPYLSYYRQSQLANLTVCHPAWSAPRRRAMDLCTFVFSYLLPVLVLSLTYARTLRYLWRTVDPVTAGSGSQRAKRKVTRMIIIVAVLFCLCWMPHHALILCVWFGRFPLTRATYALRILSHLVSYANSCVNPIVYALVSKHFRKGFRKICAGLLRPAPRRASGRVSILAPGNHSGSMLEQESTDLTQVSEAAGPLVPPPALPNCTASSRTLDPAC
# T4: cynomolgus GalR2 (Macaca fascicularis, UniProt A0A2K5WWW1 1-386)
# T4 sequence: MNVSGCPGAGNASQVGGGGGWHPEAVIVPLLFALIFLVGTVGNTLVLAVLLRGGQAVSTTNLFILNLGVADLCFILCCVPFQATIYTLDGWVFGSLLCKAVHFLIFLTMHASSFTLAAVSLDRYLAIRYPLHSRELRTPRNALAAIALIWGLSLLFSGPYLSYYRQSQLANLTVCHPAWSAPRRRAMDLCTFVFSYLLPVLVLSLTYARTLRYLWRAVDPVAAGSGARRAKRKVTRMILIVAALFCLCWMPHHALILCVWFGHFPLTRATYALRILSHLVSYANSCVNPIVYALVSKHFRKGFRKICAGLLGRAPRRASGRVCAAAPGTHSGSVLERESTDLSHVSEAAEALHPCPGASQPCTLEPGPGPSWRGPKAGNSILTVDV
# T5: mouse GalR2 (Mus musculus, UniProt O88854 1-371)
# T5 sequence (looked up): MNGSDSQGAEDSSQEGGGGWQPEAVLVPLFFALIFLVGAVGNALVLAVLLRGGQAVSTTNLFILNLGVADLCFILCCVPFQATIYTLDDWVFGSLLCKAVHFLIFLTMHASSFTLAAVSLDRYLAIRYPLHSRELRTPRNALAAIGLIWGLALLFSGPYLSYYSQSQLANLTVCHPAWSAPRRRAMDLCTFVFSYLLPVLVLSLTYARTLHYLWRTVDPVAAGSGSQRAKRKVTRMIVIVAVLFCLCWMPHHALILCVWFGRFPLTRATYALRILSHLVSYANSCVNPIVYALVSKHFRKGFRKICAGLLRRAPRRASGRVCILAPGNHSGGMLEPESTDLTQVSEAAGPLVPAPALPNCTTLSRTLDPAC
# Experiments:
# Assay in all cases: cell-based or functional assay
# human GalR2 = molecular target: T1, human GalR2
# human GalR1 = molecular target: T2, human GalR1
# rat GalR2 = molecular target: T3, rat GalR2
# cynomolgus GalR2 = molecular target: T4, cynomolgus GalR2
# mouse GalR2 = molecular target: T5, mouse GalR2
binder,measurement,setting,value
WTLNSAGYLL [Galanin 2-11],Beta Arrestin pEC50,human GalR2,6.4 pEC50
same,Calcium pEC50,human GalR2,7.6 pEC50
GWTLNSAGYLLGPQPPGFSPFR [M617],Beta Arrestin IA (%),human GalR1,99%
same,Beta Arrestin pEC50,human GalR1,8.68 pEC50
same,cAMP IA (%),human GalR1,90.1%
same,cAMP pEC50,human GalR1,10 pEC50
same,Beta Arrestin pEC50,human GalR2,8.4 pEC50
same,Calcium pEC50,human GalR2,9.6 pEC50
RGRGNWTLNSAGYLLGPVLPPPALALA [M1145],Beta Arrestin IA (%),human GalR1,24.5%
same,cAMP IA (%),human GalR1,86.7%
same,cAMP pEC50,human GalR1,6.8 pEC50
same,Beta Arrestin pEC50,human GalR2,7.9 pEC50
same,Calcium pEC50,human GalR2,8.9 pEC50
GWTLNSAGYLLGPHAVGNHRSFSDKNGLTS [Galanin 1-30 (human)],calcium assay activity (quantity not given),rat GalR2,8.8
same,calcium assay activity (quantity not given),cynomolgus GalR2,9.6
same,calcium assay activity (quantity not given),mouse GalR2,9
"WTLNSAGYLLGPKKKKK (also: PEG (dPEG24) on one lysine, site not given here) [Nax409-9]",Beta Arrestin IA (%),human GalR1,7%
same,cAMP IA (%),human GalR1,66%
same,cAMP pEC50,human GalR1,6.5 pEC50
same,Beta Arrestin pEC50,human GalR2,5.8 pEC50
same,Calcium pEC50,human GalR2,6.9 pEC50
WTLNSAGYLLGPHAIDNHRSFHDKYGLA [Galanin 2-29 (rat)],Beta Arrestin IA (%),human GalR1,67.2%
same,Beta Arrestin pEC50,human GalR1,8.09 pEC50
same,cAMP IA (%),human GalR1,90.8%
same,cAMP pEC50,human GalR1,8.6 pEC50
same,Beta Arrestin pEC50,human GalR2,8.1 pEC50
same,Calcium pEC50,human GalR2,9.2 pEC50
GWTLNSAGYLLGPHA [Galanin 1-15],Beta Arrestin pEC50,human GalR2,7.2 pEC50
same,Calcium pEC50,human GalR2,8.6 pEC50
